Here are results for two molecules from patent publication US20060051395A1 (AFFINERGY, published 2006).

Ends that are not written are not given here.

The target in the assay is T1, Bone Morphogenic Protein 2 (BMP-2) (UniProt P12643 283-396).
T1 construct: Bought from Medtronic; In the phage ELISAs it was biotinylated with NHS-biotin (about one biotin per molecule) and held on streptavidin plates; In the peptide assays it was unlabelled
As to the kind of experiment: estimated affinity from solution-phase binding of biotinylated peptide and BMP-2, capture on streptavidin plate, anti-BMP antibody detection.

T1 sequence (P12643 283-396 limits assumed): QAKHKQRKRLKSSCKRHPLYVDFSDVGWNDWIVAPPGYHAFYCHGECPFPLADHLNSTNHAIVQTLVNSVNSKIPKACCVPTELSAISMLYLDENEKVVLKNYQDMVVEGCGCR

B1: AFF-2009 (peptide)
peptide: SSFEPLRFPLKGVPVSR
modifications: not fully specified (residues 1, 2, 16, 17, C-terminus); also: C-terminal Lys(ε-biotin), linker before it not given here
notes: Synthetic form of the peptide of clone AP02-60; not shown: C-terminal biotinylated lysine; any linker before it is not spelled out for this peptide
Turning to B1, the Kd was 10 nM.

B2: AFF-2012 (peptide)
peptide: SSSVDLYFPLKGDVVSR
modifications: not fully specified (residues 1, 2, 16, 17, C-terminus); also: C-terminal Lys(ε-biotin), linker before it not given here
notes: Synthetic form of the peptide of clone AP02-59; not shown: C-terminal biotinylated lysine; any linker before it is not spelled out for this peptide
As for B2, the dissociation constant Kd is 9 nM.
